B1: RAIDD DD (94-199), wild type (domain or fragment)
chain: not shown
notes: RAIDD (RIP-associated Ich-1/Ced-3 homologous protein with a death domain), death domain, residues 94-199; also called RD-DD; RAIDD death domain; source: E. coli BL21 (DE3) RILP, purified (Ni-NTA, size exclusion S-200)
B2: PIDD DD (777-883) (domain or fragment, UniProt Q9HB75 777-883, looked up)
chain: LNLGDAETGFLTQSNLLSVAGRLGLDWPAVALHLGVSYREVQRIRHEFRDDLDEQIRHMLFSWAERQAGQPGAVGLLVQALEQSDRQDVAEEVRAVLELGRRKYQDS
notes: PIDD (p53-induced protein with a death domain), death domain, residues 777-883; also called PD-DD; PIDD death domain; source: E. coli BL21 (DE3) RILP, purified (Ni-NTA, size exclusion S-200)

Assay [1] deals with B2. As to the kind of experiment: SEC; RAIDD (full length, DD or mutant) mixed with a molar excess of PIDD DD, 30 min at room temperature; Superdex 200 HR 10/30 in 20 mM Tris-HCl pH 8.0, 150 mM NaCl; fractions on SDS-PAGE, Coomassie. To be noted: both partners purified. For orientation: In gel filtration, larger molecules generally elute earlier.
For assay [2], the target named is T1, full-length RAIDD (1-199), wild type (UniProt P78560 1-199).
T1 construct: RAIDD, full length, residues 1-199 (CARD and DD); also called RD; wild-type full-length RAIDD; source: E. coli BL21 (DE3) RILP, purified (Ni-NTA, size exclusion S-200)
The assay is described as above. The following applies: both partners purified.

From PMC6169973, “RAIDD mutations underlie the pathogenesis of thin lissencephaly (TLIS)” (PLoS ONE, 2018) come the findings set out here.

T1 sequence (P78560 whole entry, the tested form may be a part): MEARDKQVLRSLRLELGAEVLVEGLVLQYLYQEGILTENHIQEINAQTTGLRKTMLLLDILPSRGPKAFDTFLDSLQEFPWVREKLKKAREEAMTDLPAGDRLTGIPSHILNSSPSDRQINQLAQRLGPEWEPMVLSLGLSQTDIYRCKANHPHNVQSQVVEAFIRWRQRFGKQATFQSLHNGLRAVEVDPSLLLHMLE

Consider B1, for which the binding result in assay [1] is on record as “binds”.

Consider B2, for which, in assay [2], the binding result is on record as “binds”.
